We go through 2 substances from paper PMC10106861.

Test [1] concerns the target GhWRKY41 full length as GhWRKY41-NLuc and GhWRKY41-CLuc, expressed in cotton protoplasts (Gossypium hirsutum). Description: split reporter.
Test [2] deals with GhWRKY41-Myc fusion protein (Gossypium hirsutum). Description: immunoprecipitation and Western blot.

As a reminder, the stoichiometry N is a count of units in the complex or per binding partner.

Turning to “GhWRKY41 full length as GhWRKY41-NLuc and GhWRKY41-CLuc, expressed in cotton protoplasts (natural protein)”, in test [1], the fold luciferase activity (after V. dahliae supernatant) came out at 23 fold, the fold luciferase activity (after chitin solution) stood at 27 fold and the fold luciferase activity over the negative control (normal condition) was found to be 10 fold.

As to “GhWRKY41-Myc fusion protein (natural protein)”, the stoichiometry N in test [2] was determined as 2.
